The record followed here is patent publication US20230086210A1.

Assay [1] addresses human 4-1BB on Jurkat-hu4-1BB-NFκB-luc2 reporter cells (human) (UniProt Q07011). Put plainly: cell-based or functional assay. On the set-up: unit not given beside the values.
For assay [2], the target named is human PD-L1 on MKN45-huPD-L1 cells (human) (UniProt Q9NZQ7). Put plainly: flow cytometry on MKN45-huPD-L1 cells, area under the binding curve. Details: unit not given beside the values.
Chain of human PD-L1 on MKN45-huPD-L1 cells (human) (Q9NZQ7 19-290 limits assumed): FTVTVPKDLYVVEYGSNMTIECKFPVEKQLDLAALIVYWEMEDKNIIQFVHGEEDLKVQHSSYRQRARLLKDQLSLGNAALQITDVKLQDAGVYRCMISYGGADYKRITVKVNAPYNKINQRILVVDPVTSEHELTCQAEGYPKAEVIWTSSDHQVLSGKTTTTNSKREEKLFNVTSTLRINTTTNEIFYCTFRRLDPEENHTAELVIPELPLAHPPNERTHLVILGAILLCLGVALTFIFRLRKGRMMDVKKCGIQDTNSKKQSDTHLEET

Chain of human 4-1BB on Jurkat-hu4-1BB-NFκB-luc2 reporter cells (human) (Q07011 24-255): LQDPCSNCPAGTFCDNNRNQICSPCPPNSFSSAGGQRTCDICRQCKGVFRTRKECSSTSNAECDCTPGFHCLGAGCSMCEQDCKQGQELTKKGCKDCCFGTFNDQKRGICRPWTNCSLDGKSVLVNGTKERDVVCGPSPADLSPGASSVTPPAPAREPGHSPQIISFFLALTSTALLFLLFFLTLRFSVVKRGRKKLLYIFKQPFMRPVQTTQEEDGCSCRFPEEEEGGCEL

DP47 huIgG1 P329G LALA (antibody) showed an AUC of NFκB-activation-induced Luciferase activity curve in assay [1] of 112. Besides, the AUC in assay [2] was 248.
